± gives the uncertainty stated by the source.
B1: Receptor-interacting serine/threonine-protein kinase 2, residues 438 to 518; numbered along this chain, O43353 (parent)
chain: QWIQSKREDIVNQMTEACLNQSLDALLSRDLIMKEDYELVSTKPTRTSKVRQLLDTTDIQGEEFAKVIVQKLKDNKQMGLQ

Variants of: B1
Assay: abundance fitness (aPCA) (normalised: wild type 0, dead -1); higher = more abundant; growth selection in yeast, the domain comes from the species named
Details: Homo sapiens

Variant	abundance fitness
E16D	0.014 ± 0.11
E16G	-0.858 ± 0.098
E16I	-0.319 ± 0.11
E16K	-0.537 ± 0.14
E16L	-0.288 ± 0.072
E16M	-0.186 ± 0.19
E16P	-0.539 ± 0.078
E16Q	-0.546 ± 0.12
E16R	-0.793 ± 0.082
E16S	-0.272 ± 0.061
E16T	-0.193 ± 0.079
E16V	-0.289 ± 0.067
E16Y	-0.576 ± 0.15
A17C	-0.107 ± 0.074
A17D	0.042 ± 0.11
A17E	0.182 ± 0.11
A17F	-0.839 ± 0.16
A17G	-0.175 ± 0.055
A17H	-0.043 ± 0.11
A17I	-0.569 ± 0.21
A17K	-0.072 ± 0.2
A17L	-0.186 ± 0.068
A17M	-0.25 ± 0.16
A17N	-0.166 ± 0.17

Variant	abundance fitness
A17P	-0.33 ± 0.057
A17Q	0.076 ± 0.088
A17S	-0.117 ± 0.056
A17T	0.131 ± 0.083
A17V	0.004 ± 0.067
A17W	-0.485 ± 0.1
A17Y	-0.137 ± 0.12
C18A	-0.151 ± 0.067
C18D	-0.796 ± 0.25
C18E	0.062 ± 0.095
C18F	-0.375 ± 0.19
C18G	-0.425 ± 0.062
C18H	-0.747 ± 0.2
C18I	-0.384 ± 0.12
C18L	-0.519 ± 0.072
C18M	-0.264 ± 0.23
C18N	-0.288 ± 0.16
C18P	-0.299 ± 0.074
C18Q	-0.316 ± 0.11
C18R	-0.559 ± 0.071
C18S	-0.24 ± 0.061
C18T	0.158 ± 0.084
C18V	-0.004 ± 0.079
C18Y	-0.795 ± 0.22

Variant	abundance fitness
L19A	-0.447 ± 0.1
L19F	-0.833 ± 0.27
L19G	-0.502 ± 0.088
L19I	0.024 ± 0.18
L19K	-0.884 ± 0.34
L19M	-0.306 ± 0.12
L19N	-0.454 ± 0.34
L19P	-0.3 ± 0.16
L19Q	-0.351 ± 0.14
L19S	-0.792 ± 0.16
L19T	-0.112 ± 0.3
L19V	-0.25 ± 0.097
L19W	-1 ± 0.39
L19Y	-0.607 ± 0.24
N20A	-0.048 ± 0.21
N20C	-0.564 ± 0.16
N20E	-0.571 ± 0.36
N20F	0.023 ± 0.37
N20G	-0.159 ± 0.072
N20H	0.119 ± 0.38
N20K	0.117 ± 0.22
N20L	-0.102 ± 0.1
N20P	-0.829 ± 0.24
N20Q	-0.091 ± 0.42

Variant	abundance fitness
N20R	-0.106 ± 0.098
N20S	-0.043 ± 0.11
N20T	-0.29 ± 0.17
N20V	-0.274 ± 0.11
N20W	0.075 ± 0.11
N20Y	0.112 ± 0.2
Q21A	0.089 ± 0.12
Q21C	-0.475 ± 0.12
Q21D	0.183 ± 0.11
Q21E	-0.096 ± 0.1
Q21F	-0.776 ± 0.28
Q21G	-0.432 ± 0.064
Q21H	-0.562 ± 0.13
Q21I	-0.788 ± 0.1
Q21K	-0.338 ± 0.18
Q21L	-0.319 ± 0.073
Q21M	-0.736 ± 0.19
Q21N	-0.357 ± 0.2
Q21P	-0.793 ± 0.1
Q21R	-0.286 ± 0.051
Q21S	-0.141 ± 0.062
Q21T	-0.344 ± 0.08
Q21V	-0.382 ± 0.085
Q21W	-1.07 ± 0.2

Variant	abundance fitness
Q21Y	-0.313 ± 0.22
S22A	0.066 ± 0.051
S22C	-0.017 ± 0.13
S22D	-0.386 ± 0.15
S22F	-0.945 ± 0.39
S22G	-0.5 ± 0.075
S22I	0.565 ± 0.49
S22L	-0.057 ± 0.072
S22N	-0.71 ± 0.46
S22P	-0.621 ± 0.059
S22Q	-0.796 ± 0.15
S22R	-1.05 ± 0.13
S22V	0.1 ± 0.069
S22Y	-0.911 ± 0.25
L23A	-0.397 ± 0.11
L23E	-0.445 ± 0.21
L23F	-0.764 ± 0.24
L23G	-0.67 ± 0.11
L23H	-0.174 ± 0.13
L23I	-0.918 ± 0.49
L23K	-0.559 ± 0.3
L23M	-0.274 ± 0.2
L23N	-0.282 ± 0.23
L23Q	-0.424 ± 0.14

Variant	abundance fitness
L23R	-0.695 ± 0.079
L23S	-0.616 ± 0.12
L23T	-0.368 ± 0.12
L23V	-0.509 ± 0.11
L23W	-0.911 ± 0.3
D24A	-0.106 ± 0.084
D24C	-0.337 ± 0.15
D24E	0.034 ± 0.33
D24F	-0.779 ± 0.22
D24G	-0.692 ± 0.1
D24H	-0.574 ± 0.16
D24K	-0.328 ± 0.19
D24L	-0.569 ± 0.11
D24M	-0.719 ± 0.33
D24P	-0.68 ± 0.099
D24R	-0.169 ± 0.057
D24S	-0.19 ± 0.077
D24T	-0.28 ± 0.045
D24V	-0.434 ± 0.1
D24W	-0.881 ± 0.21
D24Y	-0.221 ± 0.22
A25D	-0.088 ± 0.1
A25E	0.183 ± 0.072
A25F	-0.052 ± 0.16

Variant	abundance fitness
A25G	-0.451 ± 0.067
A25H	-0.225 ± 0.16
A25I	-0.339 ± 0.14
A25K	-0.732 ± 0.15
A25L	-0.303 ± 0.063
A25N	-0.343 ± 0.062
A25P	-0.737 ± 0.082
A25Q	-0.43 ± 0.096
A25R	-0.592 ± 0.063
A25S	-0.233 ± 0.057
A25T	-0.174 ± 0.075
A25V	-0.133 ± 0.092
A25W	-0.969 ± 0.17
L26A	-0.313 ± 0.059
L26C	-0.618 ± 0.11
L26D	-0.833 ± 0.34
L26E	-0.364 ± 0.11
L26F	-1.03 ± 0.25
L26G	-0.572 ± 0.081
L26H	-0.289 ± 0.18
L26K	-0.374 ± 0.15
L26M	-0.662 ± 0.13
L26P	-0.374 ± 0.068
L26Q	-0.31 ± 0.061

Variant	abundance fitness
L26R	-0.425 ± 0.05
L26S	-0.419 ± 0.069
L26T	-0.657 ± 0.13
L26V	-0.649 ± 0.069
L26W	-1.02 ± 0.17
L26Y	-0.879 ± 0.3
L27A	-0.251 ± 0.088
L27C	-0.668 ± 0.16
L27D	-0.198 ± 0.13
L27F	-0.353 ± 0.19
L27G	-0.609 ± 0.071
L27H	-0.284 ± 0.18
L27K	-0.041 ± 0.13
L27M	0.128 ± 0.24
L27N	-0.395 ± 0.17
L27P	-0.328 ± 0.07
L27Q	-0.293 ± 0.22
L27R	-0.157 ± 0.068
L27S	-0.104 ± 0.075
L27T	-0.355 ± 0.12
L27V	-0.067 ± 0.051
L27Y	-0.069 ± 0.13
S28C	-0.283 ± 0.13
S28D	-0.36 ± 0.16

Variant	abundance fitness
S28E	0.03 ± 0.14
S28F	-0.665 ± 0.29
S28G	-0.363 ± 0.064
S28H	-0.25 ± 0.12
S28I	-0.475 ± 0.2
S28K	0.095 ± 0.093
S28L	-0.204 ± 0.065
S28M	-0.259 ± 0.11
S28P	-0.847 ± 0.18
S28Q	0.041 ± 0.11
S28R	-0.082 ± 0.062
S28T	-0.165 ± 0.12
S28V	-0.175 ± 0.089
S28W	-0.527 ± 0.14
S28Y	-0.26 ± 0.1
R29C	-0.403 ± 0.22
R29E	-0.152 ± 0.12
R29F	0.192 ± 0.27
R29G	-0.238 ± 0.062
R29H	-0.345 ± 0.17
R29I	-0.88 ± 0.22
R29K	0.002 ± 0.17
R29L	0.01 ± 0.07
R29M	-0.076 ± 0.1

Variant	abundance fitness
R29N	-0.044 ± 0.21
R29P	-0.433 ± 0.079
R29Q	-0.059 ± 0.091
R29S	-0.297 ± 0.07
R29T	-0.438 ± 0.11
R29V	-0.66 ± 0.14
R29W	-0.575 ± 0.16
R29Y	-0.321 ± 0.14
D30A	-0.106 ± 0.072
D30C	-0.332 ± 0.15
D30E	-0.03 ± 0.089
D30G	0.122 ± 0.055
D30H	0.045 ± 0.11
D30K	0.06 ± 0.11
D30L	-0.615 ± 0.081
D30M	-0.814 ± 0.16
D30N	-0.401 ± 0.18
D30P	-1.08 ± 0.24
D30Q	-0.073 ± 0.077
D30R	-0.036 ± 0.049
D30S	-0.166 ± 0.087
D30V	-0.657 ± 0.12
D30W	-1.12 ± 0.24
D30Y	-0.84 ± 0.21

Variant	abundance fitness
L31A	-0.615 ± 0.089
L31D	-0.456 ± 0.2
L31F	-0.74 ± 0.18
L31G	-0.798 ± 0.087
L31H	-0.448 ± 0.39
L31I	-0.973 ± 0.45
L31K	-0.574 ± 0.2
L31M	-0.204 ± 0.13
L31N	-0.782 ± 0.35
L31P	-0.588 ± 0.063
L31R	-0.732 ± 0.087
L31S	-0.608 ± 0.048
L31V	-0.588 ± 0.13
L31W	-0.949 ± 0.16
L31Y	-0.601 ± 0.24
I32A	-0.686 ± 0.11
I32C	-0.679 ± 0.14
I32E	-0.731 ± 0.2
I32F	-0.842 ± 0.23
I32G	-0.707 ± 0.094
I32H	-0.527 ± 0.13
I32K	-0.94 ± 0.42
I32L	-0.029 ± 0.055
I32M	-0.183 ± 0.11

Variant	abundance fitness
I32P	-0.437 ± 0.071
I32Q	-0.273 ± 0.14
I32R	-0.592 ± 0.071
I32S	-0.593 ± 0.078
I32T	-0.594 ± 0.12
I32V	-0.373 ± 0.085
I32W	-0.442 ± 0.14
M33A	0.199 ± 0.071
M33C	0.115 ± 0.097
M33E	0.067 ± 0.11
M33F	-0.555 ± 0.15
M33I	-0.075 ± 0.12
M33K	-0.088 ± 0.17
M33L	0.059 ± 0.061
M33N	-0.132 ± 0.36
M33P	-0.039 ± 0.054
M33Q	0.145 ± 0.11
M33R	0.141 ± 0.053
M33S	0.195 ± 0.073
M33T	0.247 ± 0.095
M33W	-0.646 ± 0.094
M33Y	-0.439 ± 0.23
K34A	-0.094 ± 0.078
K34C	-0.199 ± 0.22

Variant	abundance fitness
K34D	-0.448 ± 0.24
K34E	0.024 ± 0.11
K34F	-0.191 ± 0.17
K34G	-0.357 ± 0.091
K34H	-0.528 ± 0.17
K34L	-0.079 ± 0.097
K34M	-0.312 ± 0.16
K34P	0.024 ± 0.066
K34R	-0.124 ± 0.063
K34S	-0.23 ± 0.065
K34T	-0.515 ± 0.22
K34V	-0.242 ± 0.13
K34W	-0.243 ± 0.092
E35A	-0.223 ± 0.085
E35D	-0.142 ± 0.14
E35F	-0.693 ± 0.19
E35G	-0.256 ± 0.07
E35H	0.055 ± 0.17
E35I	-1.12 ± 0.47
E35K	0.024 ± 0.089
E35M	-0.703 ± 0.11
E35N	-0.521 ± 0.17
E35P	-0.304 ± 0.096
E35Q	-0.233 ± 0.1

Variant	abundance fitness
E35R	-0.043 ± 0.073
E35T	-0.118 ± 0.12
E35V	-0.408 ± 0.097
E35W	-0.252 ± 0.12
E35Y	-0.514 ± 0.21
D36A	-0.267 ± 0.11
D36C	-0.839 ± 0.23
D36E	-0.147 ± 0.11
D36G	-0.551 ± 0.1
D36H	-0.194 ± 0.14
D36K	-0.545 ± 0.14
D36L	-0.791 ± 0.11
D36M	-0.711 ± 0.22
D36N	-0.678 ± 0.37
D36P	-0.459 ± 0.065
D36Q	0.121 ± 0.084
D36R	-0.718 ± 0.074
D36S	-0.551 ± 0.077
D36T	-0.244 ± 0.11
D36V	-0.587 ± 0.24
D36W	-1.04 ± 0.16
D36Y	-0.608 ± 0.28
